Test results from patent US20150344570A1 (published 2015).

B1: GpH7-A5/GpH7-B3 variant P271_11K/GpL16-k0 (antibody, human IgG1, kappa)
heavy 1: not shown
heavy 2: not shown
light: DIVMTQSPLSLPVTPGEPASISCQASESLVHSNRNTYLHWYLQKPGQSPQLLIYKVSNRFSGVPDRFSGSGSGTDFTLKISRVEAEDVGVYYCSQNTHVPPTFGQGTKVEIERTVAAPSVFIFPPSDEQLKSGTASVVCLLNNFYPREAKVQWKVDNALQSGNSQESVTEQDSKDSTYSLSSTLTLSKADYEKHKVYACEVTHQGLSSPVTKSFNRGEC
notes: heterodimerized IgG1, mutation in one H chain; also called He Ab
B2: GpH7-A5/GpH7-B3 variant Q295_18N/GpL16-k0 (antibody, human IgG1, kappa)
heavy 1: not shown
heavy 2: not shown
light: B1 light
notes: as for B1
B3: GpH7-A5/GpH7-B3 variant S267_09D/GpL16-k0 (antibody, human IgG1, kappa)
heavy 1: not shown
heavy 2: not shown
light: B1 light
notes: as for B1
B4: GpH7-A5/GpH7-B3 variant S298_14T/GpL16-k0 (antibody, human IgG1, kappa)
heavy 1: not shown
heavy 2: not shown
light: B1 light
notes: as for B1
B5: GpH7-A5/GpH7-B3 variant Q295_14T/GpL16-k0 (antibody, human IgG1, kappa)
heavy 1: not shown
heavy 2: not shown
light: B1 light
notes: as for B1
B6: GpH7-A5/GpH7-B3 variant S267_02A/GpL16-k0 (antibody, human IgG1, kappa)
heavy 1: not shown
heavy 2: not shown
light: B1 light
notes: as for B1
B7: GpH7-A5/GpH7-B3 variant P271_13S/GpL16-k0 (antibody, human IgG1, kappa)
heavy 1: not shown
heavy 2: not shown
light: B1 light
notes: as for B1
B8: GpH7-A5/GpH7-B3 variant P271_20W/GpL16-k0 (antibody, human IgG1, kappa)
heavy 1: not shown
heavy 2: not shown
light: B1 light
notes: as for B1
B9: GpH7-A5/GpH7-B3 variant S298_03V/GpL16-k0 (antibody, human IgG1, kappa)
heavy 1: not shown
heavy 2: not shown
light: B1 light
notes: as for B1
B10: GpH7-A5/GpH7-B3 variant S267_01G/GpL16-k0 (antibody, human IgG1, kappa)
heavy 1: not shown
heavy 2: not shown
light: B1 light
notes: as for B1
B11: GpH7-A5/GpH7-B3 variant Q295_03V/GpL16-k0 (antibody, human IgG1, kappa)
heavy 1: not shown
heavy 2: not shown
light: B1 light
notes: as for B1
B12: GpH7-A5/GpH7-B3 variant Q295_02A/GpL16-k0 (antibody, human IgG1, kappa)
heavy 1: not shown
heavy 2: not shown
light: B1 light
notes: as for B1
B13: GpH7-A5/GpH7-B3 variant S267_03V/GpL16-k0 (antibody, human IgG1, kappa)
heavy 1: not shown
heavy 2: not shown
light: B1 light
notes: as for B1
B14: GpH7-A5/GpH7-B3 variant S298_07I/GpL16-k0 (antibody, human IgG1, kappa)
heavy 1: not shown
heavy 2: not shown
light: B1 light
notes: as for B1
B15: GpH7-A5/GpH7-B3 variant P271_12R/GpL16-k0 (antibody, human IgG1, kappa)
heavy 1: not shown
heavy 2: not shown
light: B1 light
notes: as for B1
B16: GpH7-A5/GpH7-B3 variant Q295_04F/GpL16-k0 (antibody, human IgG1, kappa)
heavy 1: not shown
heavy 2: not shown
light: B1 light
notes: as for B1
B17: GpH7-A5/GpH7-B3 variant Q295_13S/GpL16-k0 (antibody, human IgG1, kappa)
heavy 1: not shown
heavy 2: not shown
light: B1 light
notes: as for B1
B18: GpH7-A5/GpH7-B3 variant Q295_07I/GpL16-k0 (antibody, human IgG1, kappa)
heavy 1: not shown
heavy 2: not shown
light: B1 light
notes: as for B1
B19: GpH7-A5/GpH7-B3 variant S298_08L/GpL16-k0 (antibody, human IgG1, kappa)
heavy 1: not shown
heavy 2: not shown
light: B1 light
notes: as for B1
B20: GpH7-A5/GpH7-B3 variant Q295_05P/GpL16-k0 (antibody, human IgG1, kappa)
heavy 1: not shown
heavy 2: not shown
light: B1 light
notes: as for B1
B21: GpH7-A5/GpH7-B3 variant S298_10E/GpL16-k0 (antibody, human IgG1, kappa)
heavy 1: not shown
heavy 2: not shown
light: B1 light
notes: as for B1
B22: GpH7-A5/GpH7-B3 variant S239_09D/GpL16-k0 (antibody, human IgG1, kappa)
heavy 1: not shown
heavy 2: not shown
light: B1 light
notes: as for B1
B23: GpH7-A5/GpH7-B3 variant S239_01G/GpL16-k0 (antibody, human IgG1, kappa)
heavy 1: not shown
heavy 2: not shown
light: B1 light
notes: as for B1

Molecular target: T1, FcγRIa (human, UniProt P12314 16-292)
T1 construct: extracellular domain; soluble extracellular domain with C-terminal His tag, expressed in FreeStyle293 cells; also called FcgRI; FcgRIa
Test: SPR (Biacore), captured antibody, FcγRIa analyte; relative to HeCon Ab GpH7-A5/GpH7-B3/GpL16-k0 = 100

T1 sequence (P12314 16-292): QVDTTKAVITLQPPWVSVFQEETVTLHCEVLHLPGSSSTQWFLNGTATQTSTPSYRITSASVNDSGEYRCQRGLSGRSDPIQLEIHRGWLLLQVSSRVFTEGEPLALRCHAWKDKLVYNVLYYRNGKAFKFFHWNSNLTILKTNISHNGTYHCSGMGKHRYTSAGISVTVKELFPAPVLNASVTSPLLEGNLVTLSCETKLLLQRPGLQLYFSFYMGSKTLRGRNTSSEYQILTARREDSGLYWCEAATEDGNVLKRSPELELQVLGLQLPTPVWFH

| Binder | He/Con_1a |
| --- | --- |
| B1 | 103 % of control |
| B2 | 102 % of control |
| B3 | 110 % of control |
| B4 | 107 % of control |
| B5 | 103 % of control |
| B6 | 109 % of control |
| B7 | 102 % of control |
| B8 | 103 % of control |
| B9 | 110 % of control |
| B10 | 103 % of control |
| B11 | 104 % of control |
| B12 | 104 % of control |
| B13 | 106 % of control |
| B14 | 107 % of control |
| B15 | 102 % of control |
| B16 | 102 % of control |
| B17 | 102 % of control |
| B18 | 103 % of control |
| B19 | 107 % of control |
| B20 | 103 % of control |
| B21 | 108 % of control |
| B22 | 101 % of control |
| B23 | 101 % of control |
